Reference: publication PMC12051786, “Photoisomerization of Azobenzene‐Extended Charybdotoxin for the Optical Control of Kv1.2 Potassium Channel Activity” (Angewandte Chemie (International Ed. in English), 2025)

Legend:
[1] = Photo-isomerization kinetics (trans/cis) followed by absorbance under illumination; type: physicochemical; settings: 9.5 mW cm−2, 100% DMSO
Description: Next, we evaluated for all monomers and dimers the trans‐cis isomerization reactions under various wavelengths of illumination. Illuminating the ChTx‐Ah^14‐Az1 monomer at λ = 365 nm at 9.5 mW cm^−2, to favor the cis configuration, yielded a significant time‐dependent change in the absorbance properties of the peptide, characterized by a decrease of the absorbance band maximum centered at 340 nm (Figure 4a).

[2] = Thermal stability of the cis isomer in the dark; settings: Figure S3
[3] = biological target: mouse Kv1.2 channel (mouse) (UniProt P63141)
Sequence of mouse Kv1.2 channel (mouse) (P63141 whole entry): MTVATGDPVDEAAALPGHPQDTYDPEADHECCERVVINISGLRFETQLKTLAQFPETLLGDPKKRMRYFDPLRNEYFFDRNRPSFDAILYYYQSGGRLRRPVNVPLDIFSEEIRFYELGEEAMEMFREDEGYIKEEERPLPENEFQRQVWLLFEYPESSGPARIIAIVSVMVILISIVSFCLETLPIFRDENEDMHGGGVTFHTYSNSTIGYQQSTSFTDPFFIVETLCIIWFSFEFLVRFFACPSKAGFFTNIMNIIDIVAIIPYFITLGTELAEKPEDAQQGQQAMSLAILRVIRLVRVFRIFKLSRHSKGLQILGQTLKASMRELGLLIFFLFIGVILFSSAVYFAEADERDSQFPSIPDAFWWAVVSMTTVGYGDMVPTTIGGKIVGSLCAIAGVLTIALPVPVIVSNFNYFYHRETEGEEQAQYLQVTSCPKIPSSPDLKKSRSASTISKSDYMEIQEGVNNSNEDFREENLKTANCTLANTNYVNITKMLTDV

[4] = biological target: mouse Kv1.2 channel (mouse) (UniProt P63141); remark: listed apart in the source

Sequence of charybdotoxin (P13487 23-59): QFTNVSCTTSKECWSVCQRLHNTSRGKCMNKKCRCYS
Sequence of ChTx‐Ah^12 (P13487 whole entry, looked up): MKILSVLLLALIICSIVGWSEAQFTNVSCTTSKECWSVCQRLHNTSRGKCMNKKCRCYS
Sequence of ChTx‐Ah^9 (P13487 whole entry, looked up): as above

| Compound | IC50 of inhibition of K+ current, L929 cells stably overexpressing mouse Kv1.2, automated patch-clamp [3] [nM] | percent block of Kv1.2 current at 10 nM peptide, patch-clamp [4] [%] | further results |
| --- | --- | --- | --- |
| C#CCNC(=O)c1ccc(/N=N/c2ccc(C(=O)NCC#C)cc2)cc1 [Az1, (E)‐4,4′‐(diazene‐1,2‐diyl)bis(N‐(prop‐2‐yn‐1‐yl)benzamide)] |  |  | Time at which formation of the cis isomer saturates ([1]; irradiation at 340 nm): 300 s; Time for recovery of trans-enriched compound on reverse-switching ([1]; irradiation at 435 nm): ≈ 60 s; Thermal stability of the cis isomer [2]: remarkably stable |
| ChTx‐Ah^9 (from UniProt P13487 23-59) (peptide) | 6.3 |  |  |
| ChTx‐Ah^12 (from UniProt P13487 23-59) (peptide) | 1.2 |  |  |
| ChTx‐Ah^14 (from UniProt P13487 23-59) (peptide) | 9.8 | 52 |  |
| ChTx‐Ah^19 (from UniProt P13487 23-59) (peptide) | 11.5 |  |  |
| charybdotoxin (from UniProt P13487 23-59) (peptide) | 5 | 62.2 |  |
